Publication PMC7875320

Biological target: human insulin (Homo sapiens, UniProt P01308;P01308 25-54;90-110)
Assay: graphene field-effect transistor

Sequence of human insulin (P01308 25-54, chain 1 of 2): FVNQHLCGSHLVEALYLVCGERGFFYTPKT
Sequence of human insulin (P01308 90-110, chain 2 of 2): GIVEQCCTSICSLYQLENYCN

B1: IGA3 (structured_DNA)
DNA: GGTGGTGGGGGGGGTTGGTAGGGTGTCTTC
modifications: 5'-NH2 (amine)
B1 gave a Kd of 35 nM.
